Among the data in article PMC11844729 are fold landing frequency on F-actin against mN2G^SR values, retold here.

The target in this experiment is F-actin (actin filaments from rabbit skeletal muscle actin) (rabbit), P68135. Briefly: single-molecule TIRF microscopy. To be noted: remark: other sources report otherwise.

B1: utrophin N-terminal fragment (amino acids 1 to 261)-sfGFP-6xHis, P46939 1-261 (domain or fragment)
chain: MAKYGEHEASPDNGQNEFSDIIKSRSDEHNDVQKKTFTKWINARFSKSGKPPINDMFTDLKDGRKLLDLLEGLTGTSLPKERGSTRVHALNNVNRVLQVLHQNNVELVNIGGTDIVDGNHKLTLGLLWSIILHWQVKDVMKDVMSDLQQTNSEKILLSWVRQTTRPYSQVNVLNFTTSWTDGLAFNAVLHRHKPDLFSWDKVVKMSPIERLEHAFSKAQTYLGIEKLLDPEDVAVQLPDKKSIIMYLTSLFEVLPQQVTID
modifications: here or on the partner: 30% DyLight-650 NHS ester-labelled and optionally 5% biotinylated (EZ-Link NHS-PEG4-biotin) actin
Consider B1, for which the fold landing frequency on F-actin against mN2G^SR was 20 fold.
